Results on twelve substances are retold here after FireProtDB (doi:10.1021/bi00010a017).

The conditions of this series: Saccharomyces cerevisiae (strain ATCC 204508 / S288c), pH 4.6, Thermal, CD, Unknown, reversible: yes.

By Tm is commonly meant the temperature at the midpoint of the melting transition.

Cytochrome c isoform 1 F16Y, P00044, sequence (P00044 whole entry F16Y, canonical isoform): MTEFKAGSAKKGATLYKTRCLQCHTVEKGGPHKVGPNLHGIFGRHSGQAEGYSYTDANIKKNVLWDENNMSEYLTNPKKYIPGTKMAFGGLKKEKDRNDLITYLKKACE
Cytochrome c isoform 1 F16I, P00044, sequence (P00044 whole entry F16I, canonical isoform): as the sequence (P00044 whole entry F16Y, canonical isoform) above, with Y16I counted along it
Cytochrome c isoform 1 L100A|Y103F, P00044 L100A Y103F, sequence (P00044 whole entry L100A/Y103F, canonical isoform): as the sequence (P00044 whole entry F16Y, canonical isoform) above, with Y16F, L100A, Y103F counted along it
Cytochrome c isoform 1 Y103F, P00044, sequence (P00044 whole entry Y103F, canonical isoform): as the sequence (P00044 whole entry F16Y, canonical isoform) above, with Y16F, Y103F counted along it
Cytochrome c isoform 1 L100V, P00044, sequence (P00044 whole entry L100V, canonical isoform): as the sequence (P00044 whole entry F16Y, canonical isoform) above, with Y16F, L100V counted along it
Cytochrome c isoform 1 wild type, P00044, sequence (P00044 whole entry, canonical isoform): as the sequence (P00044 whole entry F16Y, canonical isoform) above, with Y16F counted along it
Cytochrome c isoform 1 L100I, P00044, sequence (P00044 whole entry L100I, canonical isoform): as the sequence (P00044 whole entry F16Y, canonical isoform) above, with Y16F, L100I counted along it
Cytochrome c isoform 1 L100I|Y103F, P00044 L100I Y103F, sequence (P00044 whole entry L100I/Y103F, canonical isoform): as the sequence (P00044 whole entry F16Y, canonical isoform) above, with Y16F, L100I, Y103F counted along it
Cytochrome c isoform 1 F16W, P00044, sequence (P00044 whole entry F16W, canonical isoform): as the sequence (P00044 whole entry F16Y, canonical isoform) above, with Y16W counted along it
Cytochrome c isoform 1 L100A, P00044, sequence (P00044 whole entry L100A, canonical isoform): as the sequence (P00044 whole entry F16Y, canonical isoform) above, with Y16F, L100A counted along it
Cytochrome c isoform 1 L100T, P00044, sequence (P00044 whole entry L100T, canonical isoform): as the sequence (P00044 whole entry F16Y, canonical isoform) above, with Y16F, L100T counted along it
Cytochrome c isoform 1 Y103A, P00044, sequence (P00044 whole entry Y103A, canonical isoform): as the sequence (P00044 whole entry F16Y, canonical isoform) above, with Y16F, Y103A counted along it

With Cytochrome c isoform 1 F16I, P00044, for the setting “structure 1YCC”, the Tm worked out at 48.5 °C; the “change of melting temperature, mutant - wild type (higher = more stable)” value (from here on “change of melting temperature, mutant”) is -4.3 °C; the “heat capacity change of unfolding” value is 1.57 kcal/mol/K; the “unfolding enthalpy (van 't Hoff)” value is 79.9 kcal/mol.

Turning to Cytochrome c isoform 1 F16W, P00044, for the setting “structure 1YCC”, the Tm is 47.6 °C; the “change of melting temperature, mutant” value was -5.2 °C; the “heat capacity change of unfolding” value amounted to 1.6 kcal/mol/K; the “unfolding enthalpy (van 't Hoff)” value was 75.6 kcal/mol.

For Cytochrome c isoform 1 F16Y, P00044, under “structure 1YCC”, the Tm is 50.9 °C; the “change of melting temperature, mutant” value was -1.9 °C; the “heat capacity change of unfolding” value came to 1.26 kcal/mol/K; the “unfolding enthalpy (van 't Hoff)” value worked out at 75.5 kcal/mol.

For Cytochrome c isoform 1 L100A, P00044, under “structure 1YCC”, the Tm is 36.6 °C; the “change of melting temperature, mutant” value was -16.2 °C; the “heat capacity change of unfolding” value amounted to 1.94 kcal/mol/K; the “unfolding enthalpy (van 't Hoff)” value is 52.6 kcal/mol.

Consider “Cytochrome c isoform 1 L100A|Y103F, P00044 L100A Y103F”, for which, under “structure 1YCC”, the Tm turned out to be 33.4 °C; the “change of melting temperature, mutant” value was -19.4 °C; the “heat capacity change of unfolding” value was determined as 1.78 kcal/mol/K; the “unfolding enthalpy (van 't Hoff)” value was found to be 53.7 kcal/mol.

As to Cytochrome c isoform 1 L100I, P00044, for the setting “52.8 °C, structure 1YCC”, the “heat capacity change of unfolding” value worked out at 1.81 kcal/mol/K and the unfolding free energy amounted to 0.33 kcal/mol. Moreover, under “structure 1YCC”, the Tm was found to be 54.1 °C; the “change of melting temperature, mutant” value stood at 1.3 °C; the “heat capacity change of unfolding” value is 1.81 kcal/mol/K; the “unfolding enthalpy (van 't Hoff)” value amounted to 87.2 kcal/mol.

As for “Cytochrome c isoform 1 L100I|Y103F, P00044 L100I Y103F”, for the setting “structure 1YCC”, the Tm is 49.9 °C; the “change of melting temperature, mutant” value was -2.9 °C; the “heat capacity change of unfolding” value came to 1.76 kcal/mol/K; the “unfolding enthalpy (van 't Hoff)” value was found to be 79.9 kcal/mol.

As to Cytochrome c isoform 1 L100T, P00044, for the setting “structure 1YCC”, the Tm came out at 38.9 °C; the “change of melting temperature, mutant” value was -13.9 °C; the “heat capacity change of unfolding” value was determined as 1.49 kcal/mol/K; the “unfolding enthalpy (van 't Hoff)” value was 57.8 kcal/mol.

As for Cytochrome c isoform 1 L100V, P00044, for the setting “structure 1YCC”, the melting temperature (Tm) was determined as 48.8 °C; the “change of melting temperature, mutant” value was -4 °C; the “heat capacity change of unfolding” value was determined as 1.54 kcal/mol/K; the “unfolding enthalpy (van 't Hoff)” value turned out to be 81.6 kcal/mol.

Turning to Cytochrome c isoform 1 Y103A, P00044, for the setting “structure 1YCC”, the Tm was found to be 31.1 °C; the “change of melting temperature, mutant” value is -21.7 °C; the “heat capacity change of unfolding” value turned out to be 1.77 kcal/mol/K; the “unfolding enthalpy (van 't Hoff)” value stood at 49.2 kcal/mol.

With Cytochrome c isoform 1 Y103F, P00044, for the setting “52.8 °C, structure 1YCC”, the “heat capacity change of unfolding” value came to 1.53 kcal/mol/K and the unfolding free energy amounted to 0.24 kcal/mol. In addition, for the setting “structure 1YCC”, the Tm was determined as 53.8 °C; the “change of melting temperature, mutant” value is 1 °C; the “heat capacity change of unfolding” value came out at 1.53 kcal/mol/K; the “unfolding enthalpy (van 't Hoff)” value is 84.5 kcal/mol.

As for “Cytochrome c isoform 1 wild type, P00044”, the Tm stood at 52.8 °C, the “heat capacity change of unfolding” value came to 1.37 kcal/mol/K and the “unfolding enthalpy (van 't Hoff)” value worked out at 82.5 kcal/mol. Besides, where the note is “52.8 °C”, the “heat capacity change of unfolding” value is 1.37 kcal/mol/K and the unfolding free energy came to 0 kcal/mol.
